Test results reported in patent publication US20070059825A1.

Molecular target: human zalpha11 receptor (full-length, on cells) (human) (UniProt Q9HBE5)
Experiment: cell-based or functional assay

Chain of human zalpha11 Ligand-saporin immunotoxin conjugate (Q9HBE4 32-162): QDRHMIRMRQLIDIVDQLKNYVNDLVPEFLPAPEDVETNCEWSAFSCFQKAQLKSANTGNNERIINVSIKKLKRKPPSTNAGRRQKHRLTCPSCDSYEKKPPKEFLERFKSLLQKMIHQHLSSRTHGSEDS
Chain of UniProt Q9HBE5 (Q9HBE5 20-538 limits assumed): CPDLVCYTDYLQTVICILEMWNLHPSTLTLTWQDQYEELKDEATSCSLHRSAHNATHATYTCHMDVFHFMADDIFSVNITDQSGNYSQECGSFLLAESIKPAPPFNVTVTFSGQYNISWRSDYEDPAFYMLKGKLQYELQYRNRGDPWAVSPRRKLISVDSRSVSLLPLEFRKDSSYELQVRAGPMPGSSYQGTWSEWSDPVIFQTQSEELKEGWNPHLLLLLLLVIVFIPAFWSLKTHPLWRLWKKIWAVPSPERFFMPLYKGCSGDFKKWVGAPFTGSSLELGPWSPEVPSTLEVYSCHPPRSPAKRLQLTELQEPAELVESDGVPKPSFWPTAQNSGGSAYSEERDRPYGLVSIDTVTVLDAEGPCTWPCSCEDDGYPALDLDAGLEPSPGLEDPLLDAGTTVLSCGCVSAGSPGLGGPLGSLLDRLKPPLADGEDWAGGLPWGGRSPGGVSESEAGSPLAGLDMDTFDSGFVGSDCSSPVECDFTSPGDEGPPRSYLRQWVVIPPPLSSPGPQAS

Question: What does the source list for “human zalpha11 Ligand-saporin immunotoxin conjugate”?
Answer: growth inhibition of IM-9 cells at the maximal conjugate concentration (250 ng/ml), Alamar Blue: 79%; growth inhibition of RAMOS cells at the maximal conjugate concentration (250 ng/ml), Alamar Blue: 65%
